These results are taken from patent publication US20210032351A1 (XDCEXPLORER SHANGHAI, published 2021).

Numbering of substitutions follows the chain as printed. Values joined by “and” are separate entries in the source; they are usually repeats but may differ in a detail not shown here. Equal values may be shown once. Ends that are not written are not given here. * marks the point of attachment. Biotin = O=C1N[C@H]2[C@H](CS[C@H]2CCCCC(=O)*)N1

For assay [1], the target named is human EGFRvIII protein, full length, on transfected cells (human) (UniProt P00533). As to the kind of experiment: FACS, 293F-hEGFRvIII 1F3 cells.
Assay [2] has the same target. As to the kind of experiment: FACS, 293F-hEGFRvIII 1C10 cells. (In general: In flow cytometry, cells or beads pass a laser one at a time.)
For assay [3] the target is unchanged. As to the kind of experiment: FACS, 293F-hEGFRvIII 1D11 cells.
For assay [4] the target is unchanged. As to the kind of experiment: FACS, U87MG-hEGFRvIII 1B3 cells.
Assay [5] has the same target. As to the kind of experiment: FACS, U87MG-hEGFRvIII 1D1 cells.
For assay [6] the target is unchanged. As to the kind of experiment: FACS, U87MG-hEGFRvIII 1F9 cells.
Assay [7] shares this target. As to the kind of experiment: FACS, U87MG-hEGFRvIII 2C6 cells.
The target is the same in assay [8]. As to the kind of experiment: FACS, U87MG-hEGFRvIII 2G2 cells.
Assay [9] shares this target. As to the kind of experiment: FACS, CHO-K1-hEGFRvIII 1E3 cells.
Assay [10] has the same target. As to the kind of experiment: FACS, CHO-K1-hEGFRvIII 1G10 cells.
The target is the same in assay [11]. As to the kind of experiment: FACS, CHO-K1-hEGFRvIII 2D11 cells.
For assay [12] the target is unchanged. As to the kind of experiment: FACS, U87MG-hEGFRvIII 2C3 cells.
Assay [13] has the same target. As to the kind of experiment: FACS, CHO-K1-hEGFRvIII 1D9 cells.
The target is the same in assay [14]. As to the kind of experiment: FACS, CHO-K1-hEGFRvIII 2B3 cells.
The target is the same in assay [15]. As to the kind of experiment: FACS, CHO-K1-hEGFRvIII 1E10 cells.
Assay [16] addresses wild-type EGFR protein on the surfaces of A431 tumor cells and normal human primary hepatocytes (human) (UniProt P00533). As to the kind of experiment: FACS, A431 tumor cells.
The target is the same in assay [17]. As to the kind of experiment: FACS, normal human primary hepatocytes.
Assay [18] concerns the target T1, human EGFRvIII protein, full length, on transfected cells (human, UniProt P00533 25-1210).
T1 construct: whole, on cells; stably transfected CHO-K1, U87MG and HEK293(F) cells; also called hEGFRvIII; mutant EGFRvIII protein
As to the kind of experiment: FACS on CHOK-EGFRvIII cells.

The target of another assay is T2, pep02.
T2 peptide: EEKKGNYVVTDHGSCVK(Biotin)
As to the kind of experiment: peptide dot matrix ELISA. (In an ELISA, binding on a coated surface is turned into a signal by an enzyme label.)

A further assay has as its target T3, pep08 (cysteine pairing not given here).
T3 peptide: YVVTDHGSCVRACGADK(Biotin)
As to the kind of experiment: peptide dot matrix ELISA.

For the next assay, the target named is T4, pep11 (cysteine pairing not given here).
T4 peptide: TDHGSCVRACGADSYEK(Biotin)
As to the kind of experiment: peptide dot matrix ELISA.

In another assay the target is T5, pep16 (cysteine pairing not given here).
T5 peptide: CVRACGADSYEMEEDGK(Biotin)
As to the kind of experiment: peptide dot matrix ELISA.

The target in another assay is T6, pep17.
T6 peptide: VRACGADSYEMEEDGVK(Biotin)
As to the kind of experiment: peptide dot matrix ELISA.

The target of the next assay is T7, pep18.
T7 peptide: RACGADSYEMEEDGVRK(Biotin)
As to the kind of experiment: peptide dot matrix ELISA.

The target of the next assay is T8, pep23 (cysteine pairing not given here).
T8 peptide: DSYEMEEDGVRKCKKCK(Biotin)
As to the kind of experiment: peptide dot matrix ELISA.

Another assay concerns the target T9, pep24 (cysteine pairing not given here).
T9 peptide: SYEMEEDGVRKCKKCEK(Biotin)
As to the kind of experiment: peptide dot matrix ELISA.

Another assay has as its target T10, pep28 (cysteine pairing not given here).
T10 peptide: EEDGVRKCKKCEGPCRK(Biotin)
As to the kind of experiment: peptide dot matrix ELISA.

Another assay deals with T11, pep31 (cysteine pairing not given here).
T11 peptide: GVRKCKKCEGPCRKVCK(Biotin)
As to the kind of experiment: peptide dot matrix ELISA.

The target in another assay is T12, pep32 (cysteine pairing not given here).
T12 peptide: VRKCKKCEGPCRKVCNK(Biotin)
As to the kind of experiment: peptide dot matrix ELISA.

For another assay, the target named is T13, pep33 (cysteine pairing not given here).
T13 peptide: RKCKKCEGPCRKVCNGK(Biotin)
As to the kind of experiment: peptide dot matrix ELISA.

The target in a further assay is T14, pep34 (cysteine pairing not given here).
T14 peptide: KCKKCEGPCRKVCNGIK(Biotin)
As to the kind of experiment: peptide dot matrix ELISA.

Another assay addresses T15, pep35 (cysteine pairing not given here).
T15 peptide: CKKCEGPCRKVCNGIGK(Biotin)
As to the kind of experiment: peptide dot matrix ELISA.

A further assay deals with T16, pep05 (cysteine pairing not given here).
T16 peptide: KGNYVVTDHGSCVRACK(Biotin)
As to the kind of experiment: peptide dot matrix ELISA.

A further assay deals with T17, pep14 (cysteine pairing not given here).
T17 peptide: GSCVRACGADSYEMEEK(Biotin)
As to the kind of experiment: peptide dot matrix ELISA.

The target in the next assay is T18, pep15 (cysteine pairing not given here).
T18 peptide: SCVRACGADSYEMEEDK(Biotin)
As to the kind of experiment: peptide dot matrix ELISA.

For the next assay, the target named is T19, pep19.
T19 sequence (peptide, C-terminal K(Biotin)): ACGADSYEMEEDGVRKK
As to the kind of experiment: peptide dot matrix ELISA.

The target of assay [19] is T20, human EGFRvIII-hFc protein (human, UniProt P00533 25-645).
T20 construct: extracellular domain; made in HEK293 cells, purified on protein A; also called immunogen A; hFc-tagged EGFRvIII protein; not shown: human IgG Fc fragment (hFc) of the pCpC vector
As to the kind of experiment: ELISA, coated EGFRvIII-hFc, antibody 1 nM. The protocol: (§1) The purified immunogen A (EGFRvIII-hFc) obtained in example 1 (for the preparation method, see step (I) in example 1) is diluted with PBS to a final concentration of 1.0 μg/mL, and then added to a 96-well ELISA plate at 100 μl/well. The plate is sealed with a plastic film and incubated at 4° C. overnight. The next day, the plate is washed twice with a plate washing solution [PBS+0.01% (v/v) Tween20], and added with a blocking solution [PBS+0.01% (v/v) Tween20+1% (w/w) BSA] for blocking 2 hours at room temperature. The blocking solution is discarded, and the purified EGFRvIII antibody obtained in example 2 is added at 100 μl/well. The plate is incubated for 2 hours at 37° C., and then washed 3 times with the plate washing solution [PBS+0.01% (v/v) Tween20]. The plate is added with an HRP (horseradish peroxidase) labeled secondary antibody (purchased from Sigma), incubated at 37° C. for 2 hours, and then washed 3 times with the plate washing solution [PBS+0.01% (v/v) Tween20]. The plate is added with 100 μl of TMB substrate/well, incubated for 30 minutes at room temperature, and then added with 100 μl of stopping solution (1.0N HCl)/well. A450 nm value is read using an ELISA plate reader (SpectraMax 384plus, purchased from Molecular Device), and the results are shown in FIG. 6 and table 10.

Assay [20] has as its target T20, human EGFRvIII-hFc protein. As to the kind of experiment: ELISA, coated EGFRvIII-hFc, antibody 10 nM. As for the experimental part: as §1
The target is the same in assay [21]. As to the kind of experiment: ELISA, coated EGFRvIII-hFc, antibody 0.1 nM. The protocol: as §1
Assay [22] shares this target. As to the kind of experiment: ELISA, coated EGFRvIII-hFc, antibody 100 nM. The protocol: as §1
Assay [23] has the same target. As to the kind of experiment: ELISA, coated EGFRvIII-hFc, antibody 0.01 nM. The protocol:
as §1

The target is the same in assay [24]. As to the kind of experiment: ELISA, coated EGFRvIII-hFc, antibody 0.001 nM. The protocol: as §1
Assay [25] has the same target. As to the kind of experiment: ELISA, coated EGFRvIII-hFc, antibody 0.0001 nM. The protocol:
as §1

Assay [26] has the same target. As to the kind of experiment: ELISA, plate coated with human EGFRvIII-hFc, HRP secondary antibody, absorbance at 450 nm. As for the experimental part:
as §1

Consider IgG subtype control (antibody), for which the cell mean fluorescence intensity in [1] came to 4.1; in [2], 4.3; in assay [3], 3.6; in [4], 2.3; in [5], 3; in assay [6] it was 1.7. Moreover, the cell mean fluorescence intensity in assay [7] was 1.8; in [8], 1.8; in [9], 2.4; in [10], 2.4; in assay [11], 1.8.

“known EGFRvIII antibody (purchased from Absoluteantibody, #Ab00184-1.1)”: the cell mean fluorescence intensity in assay [1] worked out at 395; in [2] it was 458; in assay [3] it was 388; in assay [4] it was 66.9; in [5] it was 96.4; in assay [6] it was 68. In addition, the cell mean fluorescence intensity in assay [12] amounted to 82.7; in assay [7], 178; in assay [8], 182; in assay [13], 457; in assay [9], 42; in assay [14] it was 109. Besides, the cell mean fluorescence intensity in assay [15] came to 92; in assay [10] it was 563; in assay [11], 77.

Regarding Negative control hIgG (antibody), the mean fluorescence intensity (MFI) in [16] turned out to be 388 MFI; in [17], 219 MFI.

B1: c75G7C6-4 (antibody, human IgG1, V domains shown)
VH: EVQLQQSGPELVKPGASVKIPCKASGYTFTDYNMDWVKQSHGKSLEWIGDINPNNGDTIYNQKFKGKATLTVDKSSSTAYMELRSLTSEDTAVYYCARGDYSGYYPVYYAMDYWGQGTSVTVSS
VL: ENVLTQSPAIMSASPGEKVTMTCRASSSVSSSYLHWYQQKSGASPKLWIFSTSNLAAGVPARFSGSGSGTSYSLTVSSVEAEDAATYYCQQYSGYPLTFGAGTKLELK
notes: chimeric, human IgG1 / kappa; DG of heavy chain CDR3 mutated to SG; also called DG/SG mutant
Turning to B1, the “fold decrease in binding ability compared to the wild-type chimeric antibody c75G7C6” value in [18] was 2.5 fold.

B2: Chimeric antibody 75G7 (antibody, V domains shown)
VH: B1 VH with S102D
VL: B1 VL
notes: also called c75G7C6
For the molecule B2, the ELISA signal with pep02 worked out at 0.05; with pep08, 0.05; with pep11 it was 0.08; with pep16, 0.05; in the assay with pep17 it was 0.05; with pep18 it was 0.05. In addition, the ELISA signal with pep23 came to 0.05; in the assay with pep24 it was 0.05; with pep28, 0.06; with pep31 it was 0.06; in the assay with pep32, 0.06; with pep33, 0.07. The ELISA signal with pep34 was 0.06; with pep35, 0.07.

B3: Chimeric antibody 63A10 (antibody, V domains shown)
VH: QVQLQQSGAELARPGASVKMSCKASGYTFISFTMHWVKQRPGQGLEWIGYINPNSGYTKYNQKFKDKATLTAGQSSSTAYMQLSSLTSEDSAVYYCTRGGGRGFAYWGQGTLVTVSA
VL: DILMTQSPSSMSVSLGDTVTITCHASQDINSNIGWLQQKPGKSFKALIYHGTNLEDGVPSRFSGSGSGADYSLTISSLESEDFADYYCVQYAQFPFTFGSGTKLEIK
Consider B3, for which the ELISA signal in the assay with pep05 was 0.15 and 0.17; with pep14 it was 0.08 and 0.23; in the assay with pep15 it was 0.14 and 0.11; with pep19, 0.11 and 0.15.

B4: Murine anti-43H6 (antibody, V domains shown)
VH: INAEYAGGPGLVKPSQSLSLTCTVTDYSITSDYAWNWIRQFPGNKLEWMGYISYSGNTNYNPSLKSRISITRDTSKNQFFLQLNSVTTEDTATYYCARLGRGFAYWGQGTLVTVSA
VL: B3 VL with T20S, K42T, A46G, T52R, A69E, Q93H, F96P, S100A, I106L
notes: murine hybridoma antibody; also called 43H6A1
For orientation: EC50 (read off the curve) means the midpoint of the concentration-response curve. A low value points to higher potency in that assay. B4: the OD450 nm in assay [19] came to 3.86; in assay [20], 3.87; in assay [21], 1.39; in [22], 3.85; in assay [23], 0.25; in assay [24], 0.11. Moreover, the OD450 nm in [25] was 0.09. Besides, the “EC50 (read off the curve)” value in [26] is around 0.02 nM.
